Reference: patent US20260317389 (published 2026)

B1: TCRC-L2 (antibody, V domains shown)
VH: EVQLQESGPSLVKPSQTLSLTCSVTGDSITSGYWNWIRKFPENKLEYMGYISFTGSTYYNPSLKSRISITRDTSKNQYYLQLNSVTTEDTATYYCARKREWILHPMDYWGQGTSVTVSS
VL: ENVLTQSPAIMSASPGEKVTMTCSASSSVSYMHWYQQKSLTSPKLWIYDTSKLASGVPGRFSGSGSGNFYSLTISSMEAEDVATYYCFQESGYPLTFGAGTKLELK
B2: TCRC-L8 (antibody, V domains shown)
VH: QVQLQESGPGLVKPSETLSLTCTVSGDSITSGYWNWIRQPPGKGLEYMGYISFTGSTYYNPSLKSRVTISVDTSKNQFSLKLSSVTAADTAVYYCARKREWILHPMDYWGQGTLVTVSS
VL: AIQLTQSPSSLSASVGDRVTITCSASSSVSYMHWYQQKPGKAPKLWIYDTSKLASGVPSRFSGSGSGTDFTLTISSLQPEDFATYYCFQESGYPLTFGGGTKLTVL

How the values were obtained:
[1] = target: T1, PD-L1 (human, UniProt Q9NZQ7); assay: FACS, 4C
[2] = target: T1, PD-L1; assay: competition, FACS blocking of biotin-PD-1, 4C
[3] = target: rhPD-L1 (human, UniProt Q9NZQ7); assay: ELISA
[4] = target: SSTR4 (human, UniProt P31391); assay: FACS, membrane proteome array titration
Chain of SSTR4 (P31391 whole entry): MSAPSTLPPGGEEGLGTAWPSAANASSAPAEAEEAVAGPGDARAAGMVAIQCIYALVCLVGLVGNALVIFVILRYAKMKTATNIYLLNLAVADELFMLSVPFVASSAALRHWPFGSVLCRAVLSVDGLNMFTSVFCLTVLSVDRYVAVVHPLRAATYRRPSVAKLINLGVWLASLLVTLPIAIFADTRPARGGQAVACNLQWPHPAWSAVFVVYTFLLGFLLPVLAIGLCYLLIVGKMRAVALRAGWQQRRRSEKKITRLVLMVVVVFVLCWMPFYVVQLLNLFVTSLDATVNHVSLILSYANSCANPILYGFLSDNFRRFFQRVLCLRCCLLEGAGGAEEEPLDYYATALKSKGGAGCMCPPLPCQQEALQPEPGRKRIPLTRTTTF

T1 sequence (Q9NZQ7 19-238): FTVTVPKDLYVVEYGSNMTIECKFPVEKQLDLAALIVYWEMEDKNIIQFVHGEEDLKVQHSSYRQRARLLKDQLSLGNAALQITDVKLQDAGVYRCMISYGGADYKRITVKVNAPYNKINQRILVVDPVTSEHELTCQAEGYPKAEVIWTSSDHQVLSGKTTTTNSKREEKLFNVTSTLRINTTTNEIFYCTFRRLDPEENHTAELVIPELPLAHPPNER
Chain of rhPD-L1 (Q9NZQ7 19-238): as above

Row | Binder | Kd [1] [µg/mL] | EC50 [2] [µg/mL] | Kd [3] [µg/mL] | binding result [4]
1 | B1 | 0.074 | 0.074 | 0.04 | –
2 | B2 | 0.058 | 0.058 | 0.036 | no binding
